For 1 substance, percent of cells stained with the tetramers results are on record in patent US20190031733A1.

The assay addresses Pmel-TCR (mouse). Nature of the assay: flow cytometry, APC-tetramer staining of FACS-sorted 293TREx-CD3-Pmel-TCR cells. (In general: Flow cytometry measures light scatter and fluorescence of single cells or particles in a stream.)

Sequence of Pmel-TCR (mouse) (TCR alpha, as listed by the source, form in doubt, chain 1 of 2): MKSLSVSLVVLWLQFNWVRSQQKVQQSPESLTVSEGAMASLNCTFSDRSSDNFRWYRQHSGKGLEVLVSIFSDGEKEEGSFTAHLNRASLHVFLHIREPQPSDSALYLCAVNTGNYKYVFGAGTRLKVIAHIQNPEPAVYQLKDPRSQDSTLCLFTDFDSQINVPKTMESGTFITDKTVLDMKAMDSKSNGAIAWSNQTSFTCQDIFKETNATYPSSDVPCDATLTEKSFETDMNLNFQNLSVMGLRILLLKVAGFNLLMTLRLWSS
Sequence of Pmel-TCR (mouse) (TCR beta, as listed by the source, form in doubt, chain 2 of 2): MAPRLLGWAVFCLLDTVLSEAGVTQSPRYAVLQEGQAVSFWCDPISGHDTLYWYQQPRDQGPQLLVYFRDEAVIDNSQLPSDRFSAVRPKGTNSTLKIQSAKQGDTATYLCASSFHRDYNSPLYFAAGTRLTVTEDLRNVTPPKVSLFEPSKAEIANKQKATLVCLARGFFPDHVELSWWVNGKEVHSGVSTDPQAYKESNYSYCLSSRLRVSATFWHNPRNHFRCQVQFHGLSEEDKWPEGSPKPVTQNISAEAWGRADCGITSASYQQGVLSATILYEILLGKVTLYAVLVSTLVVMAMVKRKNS
Sequence of APC-streptavidin tetramer of H-2D^b mouse MHC class I molecules loaded with the human gp100 peptide … (P01899 25-362): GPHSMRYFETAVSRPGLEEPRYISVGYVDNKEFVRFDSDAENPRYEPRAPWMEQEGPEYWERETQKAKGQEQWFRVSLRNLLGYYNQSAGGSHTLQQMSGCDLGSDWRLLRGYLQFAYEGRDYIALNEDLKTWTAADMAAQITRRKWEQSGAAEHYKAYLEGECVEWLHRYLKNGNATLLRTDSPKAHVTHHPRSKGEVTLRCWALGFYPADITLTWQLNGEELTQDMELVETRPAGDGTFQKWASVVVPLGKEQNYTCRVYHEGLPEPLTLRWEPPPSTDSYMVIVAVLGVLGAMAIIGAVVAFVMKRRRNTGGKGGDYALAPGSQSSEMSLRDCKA

“APC-streptavidin tetramer of H-2D^b mouse MHC class I molecules loaded with the human gp100 peptide … (from UniProt P01899 25-362) (peptide-MHC)” returned a percent of cells stained with the tetramers of 81.5%.
